{"source": "the DeepSol protein solubility set", "data": [{"experiment": "soluble on expression in E. coli; label from the status in PepcDB or PDB records", "values": [{"sequence": "RAIFKISVAKEKEKMDSLEHNDDNQAIALSLVVKNPAVFSKTLAEVRQLLKGHDYVISRTMDSRTNSISLAHSDTVLNENDRVFVITNPQNTAVISSFIGTEVQMDRKQWIPTESHLVSRRFIVTKSELNGKTLGSLQLRKMHGMNVTRVNRAGVEMVALASLPLQVGDRLTVVGSELVMPKVEELIGNSVKRLNEPN", "soluble on expression in E. coli": "soluble"}, {"sequence": "RDTCVTLLLDNSGSMRGRPISIAAICADVLARTLERCQVKVEILGFTTRAWKGGQSREKWLAAGRPQQPGRLNDLRHIVYKGADAPWRRARENLGLMMKEGLLKENIDGEALEWAHRRLSSRAETRKILMVISDGAPVDDSTLSVNPASYLEKHLRDVIAMVERKRQVELIAIGIGHDVTRYYARAVTITDVEQLAGAMTEQLASLFDADPKKRIGKRRVA", "soluble on expression in E. coli": "not soluble"}, {"sequence": "RERVKKEIKDLEKAKDFTEELIEKVKKYKALAREAALSKIGELASEIFAEFTEGKYSEVVVRAEENKVRLFVVWEGKERPLTFLSGGERIALGLAFRLAMSLYLAGEISLLILDEPTPYLDEERRRKLITIMERYLKKIPQVILVSHDEELKDAADHVIRISLENGSSKVEVVS", "soluble on expression in E. coli": "soluble"}, {"sequence": "RGKVFLEAQEKYEVNVIYLVSHALVETGNGKSELAKGIKDGKKRYYNFFGIGAFDSSAVRSGKSYAEKEQWTSPDKAIIGGAKFIRNEYFENNQLNLYQMRWNPENPAQHQYASDIRWADKIAKLMDKSYKQFGIKKDDIRQTYYK", "soluble on expression in E. coli": "not soluble"}, {"sequence": "RKRNRIPLRCTICRKRKVKCDKLRPHCQQCTKTGVAHLCHYMEQTWAEEAEKELLKDNELKKLRERVKSLEKTLSKVHSSP", "soluble on expression in E. coli": "soluble"}, {"sequence": "RKRRRGYDVDEQGKIVRGKGTVSSNYDNYVFDIWKQYYPQPVEIKHDHVLDHYDIHEELGTGAFGVVHRVTERATGNNFAAKFVMTPHESDKETVRKEIQTMSVLRHPTLVNLHDAFEDDNEMVMIYEFMSGGELFEKVADEHNKMSEDEAVEYMRQVCKGLCHMHENNYVHLDLKPENIMFTTKRSNELKLIDFGLTAHLDPKQSVKVTTGTAEFAAPEVAEGKPVGYYTDMWSVGVLSYILLSGLSPFGGENDDETLRNVKSCDWNMDDSAFSGISEDGKDFIRKLLLADPNTRMTIHQALEHPWLTPGNAPGRDSQIPSSRYTKIRDSIKTKYDAWPEPLPPLGRISNYSSLRKHRPQEYSIRDAFWDRSEAQPRFIVKPYGTEVGEGQSANFYCRVIASSPPVVTWHKDDRELKQSVKYMKRYNGNDYGLTINRVKGDDKGEYTVRAKNSYGTKEEIVFLNVTRHSEPLKFEPLEPMKKAPSPPRVE", "soluble on expression in E. coli": "soluble"}, {"sequence": "RLSEIFNSPEFAESKSKLTLALGQDITGQPVVTDLGKAPHLLVAGTTGSGKSVGVNAMILSMLFKAAPEDVRMIMIDPKMLELSIYEGIPHLLAPVVTDMKLAANALNWCVNEMEKRYRLMSFMGVRNLAGFNQKIAEAAARGEKIGNPFSLTPDDPEPLEKLPFIVVVVDEFADLMMTAGKKIEELIARLAQKARAAGIHLILATQRPSV", "soluble on expression in E. coli": "not soluble"}, {"sequence": "RNRFTRRKIVYIHEGMNVPLLGYNAFGLIDRGTNLIQVRGSTGCNLSCIFCSVDEGPYSRTRNLDFVVDVDYLMKWFDWVAKEKGKGLEAHLDAQGEPLLYPYIVELVQELRSHPHVSVISMQSNGVLLDEKLVEELAEAGLDRVNLSIHSLDPEKAKMLMGMKNYDLNHVLEMAEALVNAGIDVLIAPVIIFGINDNEAEAFIEFARRIGAGKRWPALGFQNYVPYKFGRNPVIAKPVPFKEFYEWLRMLEEKTGMRPLVLKPHHFGMHPRPFIPLAFKR", "soluble on expression in E. coli": "not soluble"}, {"sequence": "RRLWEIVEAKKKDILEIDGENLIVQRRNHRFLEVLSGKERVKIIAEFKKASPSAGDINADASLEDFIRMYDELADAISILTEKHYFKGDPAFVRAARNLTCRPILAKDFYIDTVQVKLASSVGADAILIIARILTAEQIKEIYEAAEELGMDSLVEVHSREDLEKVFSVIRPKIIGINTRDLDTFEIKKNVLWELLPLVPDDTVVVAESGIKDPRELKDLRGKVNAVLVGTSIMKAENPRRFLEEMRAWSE", "soluble on expression in E. coli": "soluble"}, {"sequence": "RSYGPVFEEQPAHTLFPEGSAEEKVTLTCRARANPPATYRWKMNGTELKMGPDSRYRLVAGDLVISNPVKAKDAGSYQCVATNARGTVVSREASLRFGFLQEFSAEERDPVKITEGWGVMFTCSPPPHYPALSYRWLLNEFPNFIPADGRRFVSQTTGNLYIAKTEASDLGNYSCFATSHIDFITKSVFSKFSQLSLAAEDARQYAPSIKAKFPADTYALTGQMVTLECFAFGNPVPQIKWRKLDGSQTSKWLSSEPLLHIQNVDFEDEGTYECEAENIKGRDTYQGRIIIHAQPDWLDVITDTEADIGSDLRWSCVASGKPRPAVRWLRDGQPLASQNRIEVSGGELRFSKLVLEDSGMYQCVAENKHGTVYASAELTVQA", "soluble on expression in E. coli": "soluble"}, {"sequence": "RVDADNTALVDLWERSVRATHDFLSEADIVELYPQVRDLYLPAVEVWVLVDDDGVAQGFIGLNQAHVEMLFVEPGLRGRGIGRRLLDHARATWPRLSVDVNEQNPQACGFYRHYGFRQTGRSATDSAGRPFPLLHMSL", "soluble on expression in E. coli": "not soluble"}, {"sequence": "RVLEDLGWYVAHNIPPQIILELIDMCAREDSPVDKVAVVCDVRSREFRGSLTQVVSELRDKQLDPTVLFLEARDEVLIKRFDNVRRTHPLQGSQTLQVGIERERTVLSPVKEDASVVIDTSDLSVHDLRRAIESSFRTIATRTQHVTIESFGFKHGSPRDADFVVDVRFLPNPFWVPELRPFRGVDKPVSDYVLSQKGAEEFLNNFVDMLKDMLPGYRHEGKNFITIGVGCTGGHHRSVAVSEELAKRIADQTTLDVSVVHRDINRH", "soluble on expression in E. coli": "not soluble"}, {"sequence": "RVLNLEEGPDAFGDYAREKLFVRARFAARQVLDSYSHDIPEEFMASLRRRFEHDINADEDDDDAMTPEERRKIQERRFALFNKVRLEALYASQAELLRARSERDVDPMIVDEVLFEIDSQIIAAEKSTR", "soluble on expression in E. coli": "not soluble"}, {"sequence": "SADISLDELIRKRGAAAKGRLNARPGVGGVRSRVGIQQGLLSQSTRTATFQQRFDARQKIGLSDARLKLGVKDAREKLLQKDARFRIKGKVQDAREMLNSRKQQTTVPQKPRQVADAREKISLKRSSPAAFINPPIGTVTPALKLTKTIQNLYDLDEDDDGIASVPTKQMKFAASGGFLHHMAGLSSSKLSMSKALPLTKVVQNDAYTAPALPSSIRTKALPVLTSPGT", "soluble on expression in E. coli": "soluble"}, {"sequence": "SAEAGTGEPSPSVEGEHGTEYDTLPSDTVSLSDSDSDLSLPGGAEVEALSPMGLPGEEDSGPDEPPSPPSGLLPATVQPFHLRGMSSTFSQRSRDIFDCLEGAARRAPSSVAHTSMSDNGGFKRPLAPSGRSPVEGLGRAHRSPASPRVPPVPDYVAHPERWTKYSLEDVTEVSEQSNQATALAFLGSQSLAAPTDCVSSFNQDPSSCGEGRVIFTKPVRGVEARHERKRVLGKVGEPGRGGLGNPATDRGEGPVELAHLAGPGSPEAEEWGSPHGGLQEVEALSGSVHSGSVPGLPPVETVGFHGSRKRSRDHFRNKSSSPEDPGAEV", "soluble on expression in E. coli": "soluble"}, {"sequence": "SAEEPEPDLGVAEGSEDQALEMPSWKAPEDIDPQPGSYEIRHYGPAKWVSTCVESLDWDSAIQTGFTKLNGYIQGKNEKEMKIKLTAPVTSYVEPGSSPFSLLMDSPVAKRIKNNF", "soluble on expression in E. coli": "soluble"}, {"sequence": "SAENREPRCAIEAELDPVEYTLRKRLPHRLPRRPNDIYVNMKTDFKAQLARCQKLLDGGTRGQNACTEIYIHGLGLAINRAINIALQLQAGSFGSLQVAANTSTVELVDELEPETDSREPLTRVRNNSAIHIRVFRVTPK", "soluble on expression in E. coli": "soluble"}, {"sequence": "SAILALFFHMYSHNISSLSMKAQPERMHVLVLSSWRSGSSFVGQLFGQHPDVFYLMEPAWHVWMTFKQSTAWMLHMAVRDLIRAVFLCDMSVFDAYMEPGPRRQSSLFQWENSRALCSAPACDIIPQDEIIPRAHCRLLCSQQPFEVVEKACRSYSHVVLKEVRFFNLQSLYPLLKDPSLNLHIVHLVRDPRAVFRSRERTKGDLMIDSRIVMGQHEQKLKKEDQPYYVMQVICQSQLEIYKTIQSLPKALQERYLLVRYEDLARAPVAQTSRMYEFVGLEFLPHLQTWVHNITRGKGMGDHAFHTNARDALNVSQAWRWSLPYEKVSRLQKACGDAMNLLGYRHVRSEQEQRNLLLDLLSTWTVPEQIH", "soluble on expression in E. coli": "not soluble"}]}]}
